Results as given in paper PMC13079917 (Proceedings of the National Academy of Sciences of the …, 2026).

T1: J3 junctional peptide (Plasmodium falciparum (identical to 3D7 …))
T1 construct: also called junctional peptide (J3)
T1 chain: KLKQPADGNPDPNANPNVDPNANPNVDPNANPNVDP


Key:
Conditions in all cases: both partners purified
[1] = biological target: T2, SES-2 (single epitope scaffold 2); test: SPR
T2 construct: also called SES-2 scaffold; source: FreeStyle 293F cells, transfected, purified (nickel column, Superdex 200 Increase gel filtration)

[2] = biological target: TES-1 (triple-epitope scaffold 1) (synthetic de novo design (grafts PfCSP …)); test: KinExA (kinetic exclusion assay)
[3] = biological target: T1, J3 junctional peptide; test: ELISA; plates coated with peptide at 2 ug/mL in PBS; antibodies diluted fourfold from 10 ug/mL; peroxidase secondary antibody

Binder | Kd [1] [nM] | Kd [2] [nM] | binding result [3]
L9 Fab (Fab, V domains shown, source: for crystallization: ExpiCHO cells, purified (HiTrap Protein G HP, size exclusion chromatography)) VH: QVKLVESGGGVVQPGRSLRLSCEASGFIFSTYGMHWVRQAPGKGLEWVAVIWFDGSNIYYADSVKGRFTISRDNSKNTVFMQMDSLRAEDTAVYYCHRNFYDGSGPFDYWGQGTLVTVSS VL: DIQMTQSPSTLSASVGDRVTITCRASQFISRWLAWYQQKPGKAPKLLIYKASSLESGVPSRFSGSGSETHFTLTISSLQPDDVATYYCQEYTSYGRTFGQGTKVEIK | 29 |  | 
Monoclonal antibody L9 (human IgG) (antibody, V domains shown) VH: QVKLVESGGGVVQPGRSLRLSCEASGFIFSTYGMHWVRQAPGKGLEWVAVIWFDGSNIYYADSVKGRFTISRDNSKNTVFMQMDSLRAEDTAVYYCHRNFYDGSGPFDYWGQGTLVTVSS VL: DIQMTQSPSTLSASVGDRVTITCRASQFISRWLAWYQQKPGKAPKLLIYKASSLESGVPSRFSGSGSETHFTLTISSLQPDDVATYYCQEYTSYGRTFGQGTKVEIK |  | 0.085 | binds
